Experimental data taken from patent US20210300999A1 (published 2021).

Biological target: SARS-CoV-2 prefusion-stabilized trimeric spike ectodomain (S2Pecto) (SARS-CoV-2;, UniProt P0DTC2 14-1213; P10104 458-484)
Test: ELISA

B1: COV2-2196 (antibody, V domains shown)
VH: QMQLVQSGPEVKKPGTSVKVSCKASGFTFMSSAVQWVRQARGQRLEWIGWIVIGSGNTNYAQKFQERVTITRDMSTSTAYMELSSLRSEDTAVYYCAAPYCSSISCNDGFDIWGQGTMVTVSS
VL: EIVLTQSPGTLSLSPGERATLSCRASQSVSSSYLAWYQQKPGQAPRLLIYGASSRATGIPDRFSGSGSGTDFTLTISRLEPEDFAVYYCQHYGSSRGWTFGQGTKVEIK
Question: For B1, which IC50 is on record?
Answer: 0.058 µg/mL
